B1: scFv; the commonest letter at each place (parent)
chain 1: EVKLDETGGGLVQPGRPMKLSCVASGFTFSDYWMNWVRQSPEKGLEWVAQIRNKPYNYETYYSDSVKGRFTISRDDSKSSVYLQMNNLRVEDMGIYYCTGSYYGMDYWGQGTSVTVS
chain 2: DVVMTQTPLSLPVSLGDQASISCRSSQSLVHSNGNTYLRWYLQKPGQSPKVLIYKVSNRFSGVPDRFSGSGSGTDFTLKISRVEAEDLGVYFCSQSTHVPWTFGGGTKLEIK

Key:
fluorescein = variants of: B1; experiment: Kd (Tite-Seq); settings: with fluorescein; format: scFv 4-4-20, heavy + light
[1] = variants of: B1; experiment: yeast surface expression (ratio to wild type); higher = more expressed; settings: format: scFv 4-4-20, heavy + light

Row | Variant | Kd (fluorescein) | yeast surface expression [1]
1 | chain 1 F29N N35A | ≥ 10 µM | 0.862
2 | chain 1 F29M N35W | ≥ 10 µM | 0.403
3 | chain 1 F29S W33H | ≥ 10 µM | 0.724
4 | chain 1 F29S W33C | ≥ 10 µM | 0.865
5 | chain 1 F29Q S30D Y32A | ≥ 10 µM | 0.934
6 | chain 1 F29L N35T | ≥ 10 µM | 0.76
7 | chain 1 F29L N35D | ≥ 10 µM | 0.64
8 | chain 1 F29S W36Q | ≥ 10 µM | 0.549
9 | chain 1 F29L S30L | ≥ 10 µM | 0.651
10 | chain 1 F29R Y32P N35E | ≥ 10 µM | 0.819
11 | chain 1 F29R | ≥ 10 µM | 0.758
12 | chain 1 F29N W36H | ≥ 10 µM | 0.279
13 | chain 1 F29N W36L | ≥ 10 µM | 0.472
14 | chain 1 F29R S30L | ≥ 10 µM | 0.654
15 | chain 1 F29S N35H | ≥ 10 µM | 0.836
16 | chain 1 F29M S30H Y32S | ≥ 10 µM | 0.982
17 | chain 1 F29P M34C | ≥ 10 µM | 0.755
18 | chain 1 F29P W36A | ≥ 10 µM | 0.456
19 | chain 1 F29P W36E | ≥ 10 µM | 0.482
20 | chain 1 F29N S30H | ≥ 10 µM | 0.954

Row | Variant | Kd (fluorescein) | yeast surface expression [1]
21 | chain 1 F29N S30D | ≥ 10 µM | 0.949
22 | chain 1 F29L W33Y | ≥ 10 µM | 0.732
23 | chain 1 F29L W33A | ≥ 10 µM | 0.763
24 | chain 1 F29P V37H | ≥ 10 µM | 0.626
25 | chain 1 F29P V37W | ≥ 10 µM | 0.685
26 | chain 1 F29T D31P | ≥ 10 µM | 1.06
27 | chain 1 F29N S30Q N35K | ≥ 10 µM | 2.76
28 | chain 1 F29S D31W | ≥ 10 µM | 0.756
29 | chain 1 F29M W36V | ≥ 10 µM | 0.782
30 | chain 1 F29M D31Y W33Q | ≥ 10 µM | 0.811
31 | chain 1 F29Q Y32L | ≥ 10 µM | 0.881
32 | chain 1 F29Q Y32V | ≥ 10 µM | 0.848
33 | chain 1 F29N S30P M34H | ≥ 10 µM | 0.781
34 | chain 1 F29P D31I | ≥ 10 µM | 0.679
35 | chain 1 F29Q W33I | ≥ 10 µM | 0.707
36 | chain 1 F29L S30C N35A | ≥ 10 µM | 0.89
37 | chain 1 F29L W33D W36S | ≥ 10 µM | 0.585
38 | chain 1 F29Q S30C N35I | ≥ 10 µM | 0.232
39 | chain 1 F29L S30T V37W | ≥ 10 µM | 0.536
40 | chain 1 F29N W33P | ≥ 10 µM | 0.333

Row | Variant | Kd (fluorescein) | yeast surface expression [1]
41 | chain 1 F29L M34D | ≥ 10 µM | 0.656
42 | chain 1 F29L M34C | ≥ 10 µM | 0.745
43 | chain 1 F29L M34W | ≥ 10 µM | 0.795
44 | chain 1 F29T Y32S W33H | ≥ 10 µM | 0.659
45 | chain 1 F29T M34K | ≥ 10 µM | 0.35
46 | chain 1 F29T M34S | ≥ 10 µM | 0.649
47 | chain 1 F29T M34N | ≥ 10 µM | 0.548
48 | chain 1 F29L D31L | ≥ 10 µM | 0.633
49 | chain 1 F29P W33E | ≥ 10 µM | 0.722
50 | chain 1 F29P W33G | ≥ 10 µM | 0.951
51 | chain 1 F29S M34S | ≥ 10 µM | 0.543
52 | chain 1 F29L Y32F | ≥ 10 µM | 0.72
53 | chain 1 F29R D31K | ≥ 10 µM | 0.343
54 | chain 1 F29R D31G | ≥ 10 µM | 0.755
55 | chain 1 F29T S30D M34V | ≥ 10 µM | 0.837
56 | chain 1 F29L V37P | ≥ 10 µM | 0.419
57 | chain 1 F29P D31A M34A | ≥ 10 µM | 0.567
58 | chain 1 F29T Y32P | ≥ 10 µM | 0.901
59 | chain 1 F29P Y32I M34L | ≥ 10 µM | 0.858

Continued, in another order:

Row | Kd (fluorescein) | Variant | yeast surface expression [1]
60 | ≥ 10 µM | chain 1 F29M W33P | 0.639
61 | ≥ 10 µM | chain 1 F29M W33V | 0.982
62 | ≥ 10 µM | chain 1 F29M W33C | 0.983
63 | ≥ 10 µM | chain 1 F29M W33M | 0.873
64 | ≥ 10 µM | chain 1 F29P Y32P | 0.856
65 | 2.47 µM | chain 1 F29P Y32A | 1.12
66 | ≥ 10 µM | chain 1 F29N V37D | 0.229
67 | ≥ 10 µM | chain 1 F29N V37T | 0.668
68 | ≥ 10 µM | chain 1 F29N V37G | 0.135
69 | ≥ 10 µM | chain 1 F29R V37S | 0.385
70 | 1.08 µM | chain 1 F29R V37E | 0.545
71 | ≥ 10 µM | chain 1 F29R V37N | 0.445
72 | ≥ 10 µM | chain 1 F29R V37P | 0.289
73 | ≥ 10 µM | chain 1 F29Q M34W | 1.56
74 | ≥ 10 µM | chain 1 F29M D31I | 0.518
75 | 0.00746 µM | chain 1 F29M D31T | 0.848
76 | 0.0221 µM | chain 1 F29P S30Y | 0.751
77 | 0.0132 µM | chain 1 F29P S30Q | 1.05
78 | 1.63 µM | chain 1 F29N M34H | 0.665

Row | Kd (fluorescein) | Variant | yeast surface expression [1]
79 | ≥ 10 µM | chain 1 F29N M34A | 0.918
80 | ≥ 10 µM | chain 1 F29Q Y32E W33S | 0.761
81 | ≥ 10 µM | chain 1 F29Q W36H | 0.405
82 | ≥ 10 µM | chain 1 F29Q W36T | 0.359
83 | ≥ 10 µM | chain 1 F29T W36D | 0.484
84 | ≥ 10 µM | chain 1 F29N D31C M34N | 0.701
85 | ≥ 10 µM | chain 1 F29R Y32Q | 0.633
86 | 0.311 µM | chain 1 F29N S30T M34E | 1.73
87 | 0.00251 µM | chain 1 F29M | 1.21
88 | 0.0265 µM | chain 1 F29S | 0.933
89 | 0.00941 µM | chain 1 F29T | 0.981
90 | 0.0318 µM | chain 1 F29P | 1.05
91 | 5.24 µM | chain 1 F29N | 1.04
92 | 0.0119 µM | chain 1 F29Q | 0.989
93 | 0.327 µM | chain 1 F29S N35Y | 1.05
94 | 0.0434 µM | chain 1 F29S N35R | 0.922
95 | 0.228 µM | chain 1 F29N S30K | 1.13
96 | 0.876 µM | chain 1 F29N S30Q | 1.02
97 | 0.0391 µM | chain 1 F29N S30E | 1.07

Row | Kd (fluorescein) | Variant | yeast surface expression [1]
98 | 2.01 µM | chain 1 F29P V37K | 0.288
99 | 0.0189 µM | chain 1 F29T D31N | 1.01
100 | 0.345 µM | chain 1 F29T D31A | 0.838
101 | 0.0171 µM | chain 1 F29M Y32M | 1.21
102 | 0.00343 µM | chain 1 F29S D31Y | 0.752
103 | 9.5 µM | chain 1 F29Q Y32C | 1
104 | 0.228 µM | chain 1 F29L M34K W36P | 0.61
105 | 0.0391 µM | chain 1 F29Q S30G | 0.863
106 | 0.0146 µM | chain 1 F29Q S30Q | 0.966
107 | 0.0259 µM | chain 1 F29P D31R | 0.86
108 | 7.72 µM | chain 1 F29M V37Y | 1.04
109 | 5.66 µM | chain 1 F29Q V37A | 0.847
110 | 0.00239 µM | chain 1 F29Q V37M | 1.09
111 | 0.832 µM | chain 1 F29S S30H | 0.945
112 | 0.00638 µM | chain 1 F29S V37C | 0.758
113 | 0.972 µM | chain 1 F29L D31S | 0.743
114 | 0.00606 µM | chain 1 F29M D31N Y32A | 1.2
115 | 0.0391 µM | chain 1 F29T S30C | 0.804
116 | 1.14 µM | chain 1 F29T Y32R | 1.06

Source: the FLAb antibody collection (doi:10.7554/elife.23156)
